{"source": "patent US20050272649A1", "about": "“Conjoint administration of morphogens and ACE inhibitors in treatment of chronic renal failure” (priority 2002, published 2005)", "molecules": {"B1": {"name": "OP-1: osteogenic protein-1 (OP-1, also known as BMP-7), morphogen of the OP/BMP family; OP-1 used interchangeably with sBMP-7 (protein)", "chain": "STGSKQRSQNRSKTPKNQEALRMANVAENSSSDQRQACKKHELYVSFRDLGWQDWIIAPEGYAAYYCEGECAFPLNSYMNATNHAIVQTLVHFINPETVPKPCCAPTQLNAISVLYFDDSSNVILKKYRNMVVRACGCH"}}, "key": {"[1]": {"system": "rat remnant kidney model (5/6 NPX)", "assay": "rat partial (5/6) nephrectomy chronic renal failure injury model", "assay_type": "in vivo", "description": "A rat partial (5/6) nephrectomy or rat remnant kidney model (RRKM) model was employed essentially as described (Vukicevic, et al. (1987) J. Bone Mineral Res. 2: 533, the entire content of which is incorporated herein by reference). Male Munich-Wistar rats (2-3 months old, weighing about 200-250 g) were subjected to renal mass ablation. Specifically, the right kidney is excised in conjunction with selective ligation of the left renal artery branches such that one third of the kidney remains perfused (5/6 NPX, see FIG. 12). Immediately following surgery, plasma creatinine and BUN levels rise dramatically due to the loss of renal mass and function. Over the next several weeks of this “acute” failure phase, plasma creatinine and BUN levels of surviving animals decline somewhat toward normal values but remain elevated. Renal function then appears to remain relatively constant or stable for a period of variable duration. After this point, the animals enter a period of chronic renal failure in which there is an essentially linear decline in renal function ending in death. For these reasons, animals are given 4 weeks of recovery prior to initiation of treatments.\nFour weeks after nephrectomy, rats were divided into four treatment groups (see Table III), namely OP-1 (150 μg/kg body weight, 3×/week, by i.p. injection), Vehicle (20 mM arginine/150 mM NaCl, 0.1% Tween-80, pH 9.0, 1 ml/kg body weight, 3×/week, by i.p. injection), enalapril (100 mg/L in drinking water, 8-16 mg/kg body weight), and OP-1 with enalapril. For the first two groups (OP-1 and Vehicle), animals were sacrificed 14 weeks after nephrectomy. For the last two groups (enalapril, and OP-1 with enalapril), animals were sacrificed 26 weeks after nephrectomy. As surgical controls, rats were subjected to a “sham” operation in which the kidneys were decapsulated but no renal tissue was removed. Sham-treated animals were sacrificed 26 weeks after operation. None of the rats died in any group during this study. Systolic blood pressure, urine protein and/or glomerulosclerosis were monitored at intervals between 4 and 26 weeks post surgery."}, "[2]": {"system": "streptozotocin diabetic Sprague-Dawley rats", "assay_type": "in vivo", "conditions": "for Protein Ex (mg/day), urine protein excretion / kidney weight: at 32 weeks; for Mortality: deaths/animals; for GFR (ml/min/100 g bw): inulin clearance at 32 weeks; for prevalence of sclerotic glomeruli (glomerulosclerosis): DM vehicle 10.7±4.0%", "method": "A long-term streptozotocin model of diabetic nephropathy was used to test and compare the therapeutic actions of BMP-7 with those of Enalapril. The study design was a treatment protocol beginning at 16 weeks when glomerular hypertrophy and proteinuria were established. The effects of therapy with BMP-7 (10, 30, or 100 μg/kg iv, biw) were compared to a maximal dose of Enalapril (20 mg/kg) and to a vehicle control. […] The GFR of 32 week diabetic Enalapril treated rats was 0.58±0.06 (not significant compared to vehicle treated and sham injected rats 0.55±0.02).\nAnimals: Female Sprague-Dawley rats 10 weeks of age weighing 190-220 g were used. Animals were allowed free access to standard rat chow and to tap water. Diabetes mellitus was induced by a single tail-vein injection of Streptozotocin (STZ 62 mg/kg of body weight, Sigma chemical company, St. Louis, Mo.) dissolved in normal saline at day 0. The diabetic state was confirmed 72 hours later by the determination of blood glucose concentration>300 mg/dl. From day 3, all the diabetic rats received daily subcutaneous injections of 1.0-7.0 u human recombinant long-acting insulin injection (Eli Lilly & Co., Indianapolis, Ind.) as required to maintain the blood glucose concentration between 300-500 mg/dl. Tail blood glucose levels were measured twice a week with an Accu—Chek™ Advantage meter (Roche Diagnostic Corporation, Indianapolis, Ind.). Body weights were taken once a week. Food and water intake were monitored daily.\nRenal hypertrophy was well developed at 16 weeks prior to treatment with vehicle, BMP-7, or enalapril. […], animals were divided into 8 groups. Group 1 were 16 weeks of DM. Group 2 were 16 weeks normal controls. Group 3 DM animals were treated with tail-vein injection of vehicle twice a week for 16 weeks. Group 4, Group 5, and Group 6 were DM animals treated with tail-vein injections of BMP-7 100, 30, and 10 μg/kg body weight respectively twice a week for 16 weeks. Group 7 were treated with Enalapril 20 mg/kg through the drinking water for 16 weeks. […] Group 1 and Group 2 animals were sacrificed at 16 weeks. The others were sacrificed at 32 weeks. All treatments began at 16 weeks and continued through 32 weeks. Glomerular filtration rate (GFR), urine albumin excretion, kidney weight, glomerular area, mesangial matrix area, interstitial volume, monocyte and macrophage infiltration, thickness of glomerular basement membrane (GBM) and glomerulosclerosis were measured.\nRenal Function: In all animals, glomerular filtration rate (GFR) was measured as the clearance of inulin. Rats were anesthetized with a Ketamine/Xylozine cocktail. A catheter was inserted into the femoral vein under a dissecting microscope for infusion. Another catheter was placed into the femoral artery for collecting blood samples. Urine was collected by bladder cannulation.\nAfter the completion of surgery, a bolus of 2 ml/kg of 3% inulin (Cypros Pharmaceutical Corp, W. Carlsbad, Calif.) and 0.2% p-aminohippurate (PAH) in normal saline was infused as a priming load, followed by a sustaining infusion of the same solution at the rate of 8 ml/h·kg. Urine collection was initiated for three 20-minute collection periods after an hour of equilibration. An arterial blood sample was obtained during each clearance period. Plasma and urine were analyzed for inulin.\nUrine volume was measured and urinary protein concentration was determined with a Bio-Rad protein assay.\nPreparation of Kidneys: After the clearance studies, the rats were euthanized. Both kidneys were rapidly removed and placed in ice-cold phosphate buffered saline (PBS). Kidneys were weighed and then sliced on a cold glass plate. Two 2 mm coronal sections were immersed in Histochoice and in 10% buffered formalin. Kidney sections were embedded in paraffin and cut at 3 μm and stained with hematoxylin and eosin, Gomori's Trichrome and periodic acid Schiff (PAS).\nRenal Morphology: The morphometric analysis was done in a blind manner. […]"}, "[3]": {"conditions": "summary of the nephrectomy model"}, "[4]": {"conditions": "BMP-7 10 μg/kg iv twice a week, weeks 16-32"}, "[5]": {"conditions": "BMP-7 10 μg/kg iv twice a week, weeks 16-32, listed as BMP"}, "[6]": {"conditions": "BMP-7 30 μg/kg iv twice a week, weeks 16-32"}, "[7]": {"conditions": "BMP-7 30 μg/kg iv twice a week, weeks 16-32, listed as BMP"}, "[8]": {"conditions": "BMP-7 100 μg/kg iv twice a week (high dose), weeks 16-32"}, "[9]": {"conditions": "BMP-7 100 μg/kg iv twice a week (high dose), weeks 16-32, listed as BMP"}, "[10]": {"conditions": "BMP-7 100 μg/kg iv twice a week, weeks 16-32"}}, "note": "Where “and” joins values, the source holds several entries; their conditions need not be identical. Identical values can stand only once. Entries after “also recorded” stand apart in the source; their conditions may differ. Like-named read-outs stand apart in the source and are kept apart here."}
{"molecule": "B1", "values": [{"measurement": "blood pressure level", "setting": "[1]; OP-1 150 μg/kg i.p. 3×/week from 4 weeks after nephrectomy, to 14 weeks", "result": "did not dramatically lower the blood pressure level"}, {"measurement": "glomerular filtration rate", "setting": "[1]; [3]", "result": "improves glomerular filtration rate"}, {"measurement": "glomerulosclerosis", "setting": "[1]; [3]", "result": "reduces glomerulosclerosis"}, {"measurement": "renal BMP-7 expression (in situ hybridization)", "setting": "[2]; 32 weeks", "result": "restored BMP-7 expression at high levels in the collecting duct; also recorded: restored BMP-7 expression in its normal pattern at high levels; also recorded: restored the normal distribution of BMP-7 expression"}, {"measurement": "renal Wnt4 expression (in situ hybridization)", "setting": "[2]; 32 weeks", "result": "without affecting Wnt4 expression; also recorded: do not affect Wnt4 expression; also recorded: had no effect on Wnt4 expression"}, {"measurement": "Cause-Mortality unknown", "setting": "[2]; BMP-7 10 μg/kg iv twice a week", "result": "2/9"}, {"measurement": "Protein Ex (mg/day), urine protein excretion", "setting": "[2]; [4]", "result": "59.46 ± 21.84", "unit": "mg/day"}, {"measurement": "kidney weight", "setting": "[2]; [4]", "result": "1.19 ± 0.03", "unit": "g"}, {"measurement": "Protein Ex (mg/day), urine protein excretion", "setting": "[2]; [5]", "result": "59.46 ± 21.84", "unit": "mg/day"}, {"measurement": "kidney weight", "setting": "[2]; [5]", "result": "1.19 ± 0.03", "unit": "g"}, {"measurement": "Mortality", "setting": "[2]; [4]", "result": "2/9"}, {"measurement": "GFR (ml/min/100 g bw)", "setting": "[2]; [4]", "result": "0.59±0.07", "unit": "ml/min/100 g bw"}, {"measurement": "GFR (ml/min/100 g bw)", "setting": "[2]; [5]", "result": "0.59 ± 0.07", "unit": "ml/min/100 g bw"}, {"measurement": "prevalence of sclerotic glomeruli (glomerulosclerosis)", "setting": "[2]; BMP-7 10 μg/kg, weeks 16-32", "result": "4.1±1.4", "unit": "%"}, {"measurement": "Cause-Mortality anesthesia", "setting": "[2]; BMP-7 30 μg/kg iv twice a week", "result": "1/9"}, {"measurement": "Protein Ex (mg/day), urine protein excretion", "setting": "[2]; [6]", "result": "33.02 ± 9.11", "unit": "mg/day"}, {"measurement": "kidney weight", "setting": "[2]; [6]", "result": "1.19 ± 0.03", "unit": "g"}, {"measurement": "Protein Ex (mg/day), urine protein excretion", "setting": "[2]; [7]", "result": "33.02 ± 9.11", "unit": "mg/day"}, {"measurement": "kidney weight", "setting": "[2]; [7]", "result": "1.19 ± 0.03", "unit": "g"}, {"measurement": "Mortality", "setting": "[2]; [6]", "result": "1/9"}, {"measurement": "GFR (ml/min/100 g bw)", "setting": "[2]; [6]", "result": "0.61±0.09 ml/min/100 g bw and 0.62±0.09 ml/min/100 g bw"}, {"measurement": "GFR (ml/min/100 g bw)", "setting": "[2]; [7]", "result": "0.62 ± 0.09", "unit": "ml/min/100 g bw"}, {"measurement": "prevalence of sclerotic glomeruli (glomerulosclerosis)", "setting": "[2]; BMP-7 30 μg/kg, weeks 16-32", "result": "3.5±0.8", "unit": "%"}, {"measurement": "Cause-Mortality hypoglycemia", "setting": "[2]; BMP-7 100 μg/kg iv twice a week", "result": "1/10"}, {"measurement": "kidney weight", "setting": "[2]; [8]", "result": "1.10 ± 0.03", "unit": "g"}, {"measurement": "kidney weight", "setting": "[2]; [9]", "result": "1.10 ± 0.03", "unit": "g"}, {"measurement": "GFR (ml/min/100 g bw)", "setting": "[2]; [8]", "result": "0.7±0.08", "unit": "ml/min/100 g bw"}, {"measurement": "GFR (ml/min/100 g bw)", "setting": "[2]; [9]", "result": "0.70 ± 0.08", "unit": "ml/min/100 g bw"}, {"measurement": "Protein Ex (mg/day), urine protein excretion", "setting": "[2]; [10]", "result": "14.27 ± 3.50", "unit": "mg/day"}, {"measurement": "Protein Ex (mg/day), urine protein excretion", "setting": "[2]; BMP-7 100 μg/kg iv twice a week, weeks 16-32, listed as BMP", "result": "14.27 ± 3.50", "unit": "mg/day"}, {"measurement": "Mortality", "setting": "[2]; [10]", "result": "1/10"}, {"measurement": "prevalence of sclerotic glomeruli (glomerulosclerosis)", "setting": "[2]; BMP-7 100 μg/kg, weeks 16-32", "result": "2.1±0.3", "unit": "%"}, {"measurement": "cortical interstitial area / volume", "setting": "[2]; BMP-7 high dose (100 μg/kg), weeks 16-32, DM vehicle 13.1±0.7%", "result": "10.7±0.3", "unit": "%"}, {"measurement": "monocyte/macrophage tubulointerstitial infiltration", "setting": "[2]; ED-1 positive cells, 32 weeks", "result": "decreased the tubulointerstitial infiltration"}, {"measurement": "mesangial matrix accumulation (in words)", "setting": "[2]; PAS / Trichrome histology at 32 weeks", "result": "dose dependent reduction in the accumulation of mesangial matrix; also recorded: more effective than Enalapril; also recorded: greater mesangial matrix accumulation than the two higher doses"}, {"measurement": "glomerular area / glomerular hypertrophy (in words)", "setting": "[2]; treatment weeks 16-32", "result": "significantly decreased; also recorded: partially reversed glomerular hypertrophy; also recorded: equally effective"}, {"measurement": "glomerulosclerosis (in words)", "setting": "[2]; treatment weeks 16-32", "result": "prevented by BMP-7 therapy more effectively than by Enalapril; also recorded: prevented the development of glomerulosclerosis; also recorded: markedly reduced; also recorded: prevented the development of glomerular sclerosis; also recorded: more effective than Enalapril; also recorded: decreased glomerular sclerosis; also recorded: significantly better than that of Enalapril"}, {"measurement": "interstitial volume (in words)", "setting": "[2]; treatment weeks 16-32", "result": "significantly decreased; also recorded: reversed the increase in the expanded interstitial volume; also recorded: equally effective"}, {"measurement": "systolic blood pressure (tail artery cuff)", "setting": "[2]; treatment weeks 16-32", "result": "did not effect blood pressure until the final four weeks of therapy; also recorded: had no effect on blood pressure until after 28 weeks; also recorded: blood pressures were normalized; also recorded: did not affect blood pressure until late in the course of the study; also recorded: did not affect blood pressure until the last four weeks of therapy"}, {"measurement": "urine protein excretion / proteinuria / albuminuria (in words)", "setting": "[2]; treatment weeks 16-32", "result": "reversed to normal; also recorded: more effective in reversing proteinuria; also recorded: dose dependently eliminated proteinuria; also recorded: more effective than Enalapril"}, {"measurement": "GFR (in words)", "setting": "[2]; treatment weeks 16-32, versus vehicle-treated diabetic and normal rats", "result": "normal or greater; also recorded: restored glomerular filtration rate to normal; also recorded: more effective than Enalapril; also recorded: restored GFR to normal or slightly above normal"}, {"measurement": "kidney weight / renal hypertrophy (in words)", "setting": "[2]; treatment weeks 16-32, versus vehicle-treated diabetic rats", "result": "equal in partially reversing kidney hypertrophy; also recorded: partially reversed diabetic renal hypertrophy; also recorded: partially restored kidney weights towards normal; also recorded: equally effective"}]}
